Measured values: PMC11417404, “The molecular mechanism for TERRA recruitment and annealing to telomeres”

Target: RAD51 (UniProt Q06609 1-339)
Test: EMSA; 1 mM Mg2+, 1 mM ATP; highest affinity, unbound band gone at lowest RAD51 (1.5 uM); RAD51 EMSA: 50 mM Tris-HCl pH 7.5, 50 mM KCl, 1 mM MgCl2, 1 mM ATP, 37 C 10 min; 0.8% TBE agarose + 10 mM KCl at 4 C. Single molecule: T50 (10 mM Tris-HCl pH 7.5, 50 mM NaCl); imaging 10 mM Tris-HCl pH 7.5, 100 mM NaCl, 10% glycerol. Supplementary Table 2 kd values are for TERRA/DNA annealing to (protein-bound) duplex, not …
Settings: protein: recombinant; label: Cy3; G4, single strand

RAD51, sequence (Q06609 whole entry): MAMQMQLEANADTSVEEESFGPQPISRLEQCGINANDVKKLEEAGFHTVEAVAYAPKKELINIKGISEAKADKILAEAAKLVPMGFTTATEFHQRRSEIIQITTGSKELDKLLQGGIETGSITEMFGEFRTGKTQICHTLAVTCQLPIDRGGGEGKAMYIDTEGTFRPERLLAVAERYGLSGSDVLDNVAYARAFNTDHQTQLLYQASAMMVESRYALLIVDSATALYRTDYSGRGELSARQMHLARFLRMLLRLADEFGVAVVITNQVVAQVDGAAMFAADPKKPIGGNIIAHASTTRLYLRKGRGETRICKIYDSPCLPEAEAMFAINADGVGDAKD

UGGCGACGGCAGCGAGGCUUAGGGUUAGGGUUAGGGUUAGGG (structured_RNA) [TERRA-18]: binds.
